From patent publication US20240092836A1

B1: C4m#19-5th2w-NNS6-12 (peptide, not shown: large carriers; small tags and cut ends)
chain: GGCWHPYLPIRSVHFCGR
B2: C4m#19-5th2w-NNS6-25 (peptide, not shown: large carriers; small tags and cut ends)
chain: GGCKHPFLPISSHHFCPY
B3: C4m#19-5th4w-NN6-65 (peptide, not shown: large carriers; small tags and cut ends)
chain: GGCWHPFLPILSLHFCSR
B4: C4m#19-5th2w-NNS6-74 (peptide, not shown: large carriers; small tags and cut ends)
chain: GGCMHPFLPIRSWHFCSR
B5: C4m#19-5th4w-NN6-94 (peptide, not shown: large carriers; small tags and cut ends)
chain: GGCLHPFLPIYSLHFCPC
B6: C4m#19-5th4w-NN6-75 (peptide, not shown: large carriers; small tags and cut ends)
chain: GGCWHPFLPIKSVHFCCA
B7: C4m#19-5th4w-NN6-14 (peptide, not shown: large carriers; small tags and cut ends)
chain: GGCWHPFLPIRSVHFCCR
B8: C4m3127-4th-NNS6-72 (peptide, not shown: large carriers; small tags and cut ends)
chain: GGCVHPYLPISSIHFCSM
B9: C4m#19-5th4w-NN6-62 (peptide, not shown: large carriers; small tags and cut ends)
chain: GGCQHPYLPIWSFHFCPF
B10: C4m3127-4th-NNS6-16 (peptide, not shown: large carriers; small tags and cut ends)
chain: GGCWHPYLPIFSVHFCPR
B11: C4m#19-5th4w-NN6-74 (peptide, not shown: large carriers; small tags and cut ends)
chain: GGCFHPFLPIYSWHFCAR
B12: C4m#19-5th2w-NNS6-45 (peptide, not shown: large carriers; small tags and cut ends)
chain: GGCRHPFLPIWSVHFCWR
B13: C4m#19-5th4w-NN6-83 (peptide, not shown: large carriers; small tags and cut ends)
chain: GGCLHPLLPILSVHFCPS
B14: C4m3127-4th-NNS6-89 (peptide, not shown: large carriers; small tags and cut ends)
chain: GGCWHPFLPIFSAHFCMR
B15: C4m#19-5th4w-NN6-86 (peptide, not shown: large carriers; small tags and cut ends)
chain: GGCAHPVLPIRSLHFCPH
B16: C4m#19-5th2w-NNS6-84 (peptide, not shown: large carriers; small tags and cut ends)
chain: GGCWHPFLPIVSFHFCPF
B17: C4m#19-5th2w-NNS6-53 (peptide, not shown: large carriers; small tags and cut ends)
chain: GGCLHPWLPIRSFHFCGA
B18: C4m#19-5th4w-NN6-30 (peptide, not shown: large carriers; small tags and cut ends)
chain: GGCWHPFLPIMSFHFCPY
B19: C4m#19-5th2w-NNS6-6 (peptide, not shown: large carriers; small tags and cut ends)
chain: GGCWHPYLPILSLHFCQR
B20: C4m3127-4th-NNS6-30 (peptide, not shown: large carriers; small tags and cut ends)
chain: GGCWHPCLPILSPHFCPR
B21: C4m#19-5th2w-NNS6-75 (peptide, not shown: large carriers; small tags and cut ends)
chain: GGCWHPWLPIKSPHFCAL
B22: C4m3127-4th-NNS6-83 (peptide, not shown: large carriers; small tags and cut ends)
chain: GGCRHPFLPIFSKHFCEL
B23: C4m#19-5th2w-NNS6-34 (peptide, not shown: large carriers; small tags and cut ends)
chain: GGCCHPFLPIYSVHFCAS
B24: C4m#19-5th2w-NNS6-8 (peptide, not shown: large carriers; small tags and cut ends)
chain: GGCRHPFLPIFSLHFCAR
B25: C4m#19-5th4w-NN6-38 (peptide, not shown: large carriers; small tags and cut ends)
chain: GGCSHPFLPIFSLHFCPV
B26: C4m#19-5th2w-NNS6-90 (peptide, not shown: large carriers; small tags and cut ends)
chain: GGCRHPFLPIVSFHFCPF
B27: C4m#19-5th4w-NN6-36 (peptide, not shown: large carriers; small tags and cut ends)
chain: GGCRHPYLPIWSAHFCCR
B28: C4m3127-4th-NNS6-17 (peptide, not shown: large carriers; small tags and cut ends)
chain: GGCRHPVLPIVSLHFCPG
B29: C4m3127-4th-NNS6-80 (peptide, not shown: large carriers; small tags and cut ends)
chain: GGCGHPFLPIFSLHFCPR
B30: C4m#19-5th4w-NN6-89 (peptide, not shown: large carriers; small tags and cut ends)
chain: GGCMHPFLPIISQHFCAF
B31: C4m#19-5th4w-NN6-72 (peptide, not shown: large carriers; small tags and cut ends)
chain: GGCWHPWLPIVSVHFCGC
B32: C4m3127-4th-NNS6-94 (peptide, not shown: large carriers; small tags and cut ends)
chain: GGCRHPVLPIWSSHFCPW
B33: C4m#19-5th2w-NNS6-79 (peptide, not shown: large carriers; small tags and cut ends)
chain: GGCRHPFLPIVSRHFCVA
B34: C4m3127-4th-NNS6-79 (peptide, not shown: large carriers; small tags and cut ends)
chain: GGCLHPFLPIRSVHFCLR
B35: C4m3127-4th-NNS6-3 (peptide, not shown: large carriers; small tags and cut ends)
chain: GGCSHPFLPIWSVHFCGQ
B36: C4m#19-5th2w-NNS6-3 (peptide, not shown: large carriers; small tags and cut ends)
chain: GGCAHPFLPIFSPHFCPF
B37: C4m3127-4th-NNS6-2 (peptide, not shown: large carriers; small tags and cut ends)
chain: GGCWHPSLPIYSPHFCPL
B38: C4m#19-5th4w-NN6-58 (peptide, not shown: large carriers; small tags and cut ends)
chain: GGCRHPFLPISSIHFCCI
B39: C4m#19-5th2w-NNS6-43 (peptide, not shown: large carriers; small tags and cut ends)
chain: GGCRHPFLPIWSSHFCAA
B40: C4m3127-4th-NNS6-64 (peptide, not shown: large carriers; small tags and cut ends)
chain: GGCLHPYLPIVSSHFCPF
B41: C4m#19-5th4w-NN6-46-1 (peptide, not shown: large carriers; small tags and cut ends)
chain: GGCVHPALPIWSFHFCPS
B42: C4m#19-6th4w-NN6-5-3 (peptide, not shown: large carriers; small tags and cut ends)
chain: GGCWHPFLPILSLHFCGW
B43: C4m3127-4th-NNS6-26 (peptide, not shown: large carriers; small tags and cut ends)
chain: GGCAHPALPIWSCHFCPF
B44: C4m#19-5th4w-NN6-5-1 (peptide, not shown: large carriers; small tags and cut ends)
chain: GGCWHPYLPIQSLHFCPF
B45: C4m#19-5th2w-NNS6-70 (peptide, not shown: large carriers; small tags and cut ends)
chain: GGCRHPFLPIVSWHFCAA
B46: C4m#19-5th4w-NN6-71 (peptide, not shown: large carriers; small tags and cut ends)
chain: GGCPHPWLPIASVHFCPF
B47: C4m3127-4th-NNS6-85 (peptide, not shown: large carriers; small tags and cut ends)
chain: GGCGHPFLPIFSSHFCPL
B48: C4m#19-5th2w-NNS6-33 (peptide, not shown: large carriers; small tags and cut ends)
chain: GGCRHPFLPIWSFHFCWG
B49: C4m#19-5th2w-NNS6-30 (peptide, not shown: large carriers; small tags and cut ends)
chain: GGCWHPFLPILSWHFCGR
B50: C4m#19-5th2w-NNS6-37 (peptide, not shown: large carriers; small tags and cut ends)
chain: GGCIHPFLPIWSIHFCSR
B51: C4m#19-5th4w-NN6-1 (peptide, not shown: large carriers; small tags and cut ends)
chain: GGCRHPYLPIFSAHFCRS
B52: C4m#19-5th4w-NN6-64 (peptide, not shown: large carriers; small tags and cut ends)
chain: GGCWHPVLPIRSVHFCCR
B53: C4m#19-5th2w-NNS6-86 (peptide, not shown: large carriers; small tags and cut ends)
chain: GGCFHPYLPIWSLHFCRS
B54: C4m#19-5th2w-NNS6-4 (peptide, not shown: large carriers; small tags and cut ends)
chain: GGCFHPWLPISSLHFCPF
B55: C4m#19-5th2w-NNS6-27 (peptide, not shown: large carriers; small tags and cut ends)
chain: GGCFHPFLPIRSCHFCAR
B56: C4m#19-5th2w-NNS6-28 (peptide, not shown: large carriers; small tags and cut ends)
chain: GGCAHPYLPIRSVHFCPC
B57: C4m3127-4th-NNS6-48 (peptide, not shown: large carriers; small tags and cut ends)
chain: GGCFHPWLPIASWHFCGR
B58: C4m#19-5th4w-NN6-45 (peptide, not shown: large carriers; small tags and cut ends)
chain: GGCRHPWLPIWSVHFCGV
B59: C4m#19-5th4w-NN6-61 (peptide, not shown: large carriers; small tags and cut ends)
chain: GGCPHPMLPIFSVHFCPY
B60: C4m3127-4th-NNS6-12 (peptide, not shown: large carriers; small tags and cut ends)
chain: GGCSHPFLPIRSRHFCPF
B61: C4m3127-4th-NNS6-7 (peptide, not shown: large carriers; small tags and cut ends)
chain: GGCRHPFLPIRSPHFCGS
B62: C4m#19-5th2w-NNS6-26 (peptide, not shown: large carriers; small tags and cut ends)
chain: GGCLHPFLPIVSIHFCSA
B63: C4m#19-5th4w-NN6-63 (peptide, not shown: large carriers; small tags and cut ends)
chain: GGCWHPYLPILSRHFCQA
B64: C4m#19-5th4w-NN6-2 (peptide, not shown: large carriers; small tags and cut ends)
chain: GGCWHPHLPIVSSHFCLF
B65: C4m#19-5th2w-NNS6-46 (peptide, not shown: large carriers; small tags and cut ends)
chain: GGCFHPFLPIFSYHFCGL
B66: C4m#19-5th4w-NN6-90 (peptide, not shown: large carriers; small tags and cut ends)
chain: GGCRHPWLPIVSYHFCSS
B67: C4m3127-4th-NNS6-66 (peptide, not shown: large carriers; small tags and cut ends)
chain: GGCAHPHLPIRSVHFCSF
B68: C4m#19-5th2w-NNS6-51 (peptide, not shown: large carriers; small tags and cut ends)
chain: GGCRHPFLPIVSLHFCPF
B69: C4m3127-4th-NNS6-60 (peptide, not shown: large carriers; small tags and cut ends)
chain: GGCWHPFLPISSWHFCGL
B70: C4m#19-5th4w-NN6-6 (peptide, not shown: large carriers; small tags and cut ends)
chain: GGCMHPFLPIKSSHFCRK

molecular target: Recombinant Human CTLA4-Fc chimera (R&D systems) (human) (UniProt P16410); assay: ELISA, signal over SA

ELISA S/N(SA)	Binder
20.4	B1
21.1	B2
12.5	B3
7	B4
5	B5
5.6	B6
16.1	B7
20	B8
17.2	B9
16.5	B10
15.1	B11
11	B12
12	B13
6.6	B14
19.7	B15
6.4	B16
11.4	B17
16.7	B18
10.3	B19
7.5	B20
15.3	B21
20.7	B22
5	B23
16.5	B24

ELISA S/N(SA)	Binder
16.6	B25
19.7	B26
5.7	B27
20.4	B28
12.8	B29
8.3	B30
4.6	B31
5.9	B32
9.2	B33
12.8	B34
10.9	B35
18.4	B36
12.8	B37
18.7	B38
4.8	B39
12.9	B40
14.2	B41
14.7	B42
7.1	B43
14.7	B44
5.1	B45
17.4	B46
9.1	B47
9.4	B48

ELISA S/N(SA)	Binder
9	B49
9.4	B50
16.1	B51
13.7	B52
7.7	B53
6.3	B54
9.9	B55
6.3	B56
13.5	B57
15.8	B58
5.9	B59
15.8	B60
4.7	B61
5.8	B62
16.5	B63
18.4	B64
6.1	B65
21.2	B66
4.8	B67
15.8	B68
11.9	B69
16.1	B70
